For assay [1], the target named is recombinant PfPKG quintuple mutant STmut (Plasmodium falciparum) (UniProt Q8I719).
Assay [2] deals with recombinant wild-type PfPKG (Plasmodium falciparum) (UniProt Q8I719).

As for PKAtide (peptide), the PKAtide concentration at half maximal velocity (Km), ParM-ADP real-time fluorescence kinase assay in assay [1] amounted to 13 µM; in assay [2], 10 µM.
